Data taken from paper PMC8995368 (Structure (London, England : 1993), 2022).

Target: the molecule itself
Experiment: crystal structure

B1: Myxococcus xanthus encapsulin cargo protein EncB (ferritin-like protein) (natural protein, M. xanthus, UniProt Q1D6H3 1-158, looked up)
chain: MAGPPDSDLDDVARIRLVLARELETINEYEAYARASSNPEVRAFFQHLAAEEKEHVSEAVHMLRMLDSGQNDHFAKPFVPGHFQAAEAPAPATVHVPTPDGPAFSVNGRNGRLPSEPPTSLPPQRLLYGLPAPPPAVESHPLTVGSLRRGGGGSGSGR
- stoichiometry N: 10

B2: Myxococcus xanthus encapsulin cargo protein EncC (ferritin-like protein) (natural protein, M. xanthus)
chain: MPQTNPFHSLVPRKMTDTELARSIRLNIEAELDAINLYAAHIDATDNEDAKAILQHVMDEEREHAALFWELIARLDPEQAAHAKEAVEKYRLITSGASHEAVEAVGKEGAAPSPADVTPEKRLTVGSLRR
- stoichiometry N: 10
